The supplement of paper PMC6379048

How the values were obtained:
Assay in all cases: Kd (EC50 corrected by depletion factor)
UPF1 = target: T1, UPF1 (UniProt Q92900)
T1 sequence: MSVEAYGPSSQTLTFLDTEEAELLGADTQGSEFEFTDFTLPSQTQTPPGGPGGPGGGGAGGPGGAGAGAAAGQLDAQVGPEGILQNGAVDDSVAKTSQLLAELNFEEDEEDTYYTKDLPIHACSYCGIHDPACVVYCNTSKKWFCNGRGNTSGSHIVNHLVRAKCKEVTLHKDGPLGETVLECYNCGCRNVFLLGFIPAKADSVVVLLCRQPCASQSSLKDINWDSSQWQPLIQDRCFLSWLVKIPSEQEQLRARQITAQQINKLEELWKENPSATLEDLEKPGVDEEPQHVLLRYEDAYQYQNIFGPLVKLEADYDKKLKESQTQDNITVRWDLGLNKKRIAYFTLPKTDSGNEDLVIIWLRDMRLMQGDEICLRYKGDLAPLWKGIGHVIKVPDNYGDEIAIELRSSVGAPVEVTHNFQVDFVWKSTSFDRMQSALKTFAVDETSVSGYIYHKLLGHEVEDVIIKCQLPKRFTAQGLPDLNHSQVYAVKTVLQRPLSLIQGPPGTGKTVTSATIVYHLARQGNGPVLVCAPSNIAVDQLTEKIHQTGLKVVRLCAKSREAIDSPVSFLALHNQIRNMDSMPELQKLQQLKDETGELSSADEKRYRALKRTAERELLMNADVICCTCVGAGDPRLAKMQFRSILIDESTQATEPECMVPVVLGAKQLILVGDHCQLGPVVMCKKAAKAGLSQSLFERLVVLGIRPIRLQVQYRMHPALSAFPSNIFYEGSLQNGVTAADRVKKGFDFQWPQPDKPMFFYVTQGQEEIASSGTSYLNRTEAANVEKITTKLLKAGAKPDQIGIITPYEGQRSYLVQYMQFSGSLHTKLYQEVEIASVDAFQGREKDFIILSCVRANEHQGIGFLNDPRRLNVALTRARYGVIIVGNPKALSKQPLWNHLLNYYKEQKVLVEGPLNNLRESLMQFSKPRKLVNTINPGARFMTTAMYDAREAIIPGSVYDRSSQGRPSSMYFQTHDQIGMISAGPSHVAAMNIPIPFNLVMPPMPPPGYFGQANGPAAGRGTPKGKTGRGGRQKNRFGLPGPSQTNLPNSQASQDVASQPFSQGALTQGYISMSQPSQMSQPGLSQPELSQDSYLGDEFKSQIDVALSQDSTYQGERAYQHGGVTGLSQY
Procedure, shortened: (§1)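 HEK293-FT lysate (2.5 mg protein/well) was treated with free RNA oligos (0 nM to 30 μM) for 1 h at 4°C, then with the same oligos on NHS-Sepharose beads for 30 min at 4°C. Bound proteins were quantified by label-free LC-MS/MS relative to the control. EC50 came from a four-parameter log-logistic fit, and Kd is EC50 times a protein-dependent depletion factor.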

SRSF11 = target: T2, SRSF11 (UniProt Q05519)
T2 sequence: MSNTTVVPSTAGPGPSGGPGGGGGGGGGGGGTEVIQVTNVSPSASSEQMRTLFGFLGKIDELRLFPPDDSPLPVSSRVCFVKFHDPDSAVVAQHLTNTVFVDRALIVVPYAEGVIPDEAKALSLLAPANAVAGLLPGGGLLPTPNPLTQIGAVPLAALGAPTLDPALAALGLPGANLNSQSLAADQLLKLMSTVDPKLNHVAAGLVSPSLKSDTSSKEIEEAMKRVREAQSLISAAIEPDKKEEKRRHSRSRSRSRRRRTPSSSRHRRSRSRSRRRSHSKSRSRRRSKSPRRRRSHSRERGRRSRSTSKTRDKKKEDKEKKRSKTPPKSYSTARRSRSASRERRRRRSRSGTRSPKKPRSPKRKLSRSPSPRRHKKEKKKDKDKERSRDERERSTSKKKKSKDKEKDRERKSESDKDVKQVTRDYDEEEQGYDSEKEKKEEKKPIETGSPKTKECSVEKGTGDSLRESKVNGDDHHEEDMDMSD
Procedure, shortened: as §1

RPS3 = RPS3 (UniProt P23396)
Procedure, shortened: as §1

DDX21 = target: T3, DDX21 (UniProt Q9NR30)
T3 sequence: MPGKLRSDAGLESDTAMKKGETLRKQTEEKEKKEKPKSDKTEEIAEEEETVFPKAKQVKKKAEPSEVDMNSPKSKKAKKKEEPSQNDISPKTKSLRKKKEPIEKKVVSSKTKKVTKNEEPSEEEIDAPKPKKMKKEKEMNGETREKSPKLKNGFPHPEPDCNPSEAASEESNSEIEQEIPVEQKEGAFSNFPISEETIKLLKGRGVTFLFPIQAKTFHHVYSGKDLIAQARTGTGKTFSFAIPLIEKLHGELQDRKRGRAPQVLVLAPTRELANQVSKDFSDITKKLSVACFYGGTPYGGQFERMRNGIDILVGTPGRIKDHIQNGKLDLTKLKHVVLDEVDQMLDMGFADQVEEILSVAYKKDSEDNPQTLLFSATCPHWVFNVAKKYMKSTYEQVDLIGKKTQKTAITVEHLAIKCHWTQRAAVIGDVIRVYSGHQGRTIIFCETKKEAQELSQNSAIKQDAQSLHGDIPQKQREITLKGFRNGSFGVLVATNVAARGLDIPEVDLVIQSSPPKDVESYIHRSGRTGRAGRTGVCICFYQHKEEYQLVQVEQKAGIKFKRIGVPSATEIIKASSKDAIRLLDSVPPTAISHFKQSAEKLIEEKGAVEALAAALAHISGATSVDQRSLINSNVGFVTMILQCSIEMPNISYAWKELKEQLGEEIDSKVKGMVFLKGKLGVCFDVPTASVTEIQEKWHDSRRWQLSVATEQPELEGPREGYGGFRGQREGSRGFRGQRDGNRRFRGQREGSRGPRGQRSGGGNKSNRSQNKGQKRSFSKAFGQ
Procedure, shortened: as §1

AAUAAA showed a Kd (UPF1) of 2640 nM and a Kd (SRSF11) of 126 nM.
Work on CUGUCCU yielded a Kd (RPS3) of 109 nM and a Kd (DDX21) of 44.3 nM.
